The results in this text go back to publication PMC2063550.

Assay [1] addresses GST-PERK, wild-type PERK kinase domain fused to GST (active, autophosphorylated) (mouse) (UniProt Q9Z2B5).
Assay [2] shares this target. In words: pull-down.

Chain of UniProt Q9Z2B5 (Q9Z2B5 537-1114): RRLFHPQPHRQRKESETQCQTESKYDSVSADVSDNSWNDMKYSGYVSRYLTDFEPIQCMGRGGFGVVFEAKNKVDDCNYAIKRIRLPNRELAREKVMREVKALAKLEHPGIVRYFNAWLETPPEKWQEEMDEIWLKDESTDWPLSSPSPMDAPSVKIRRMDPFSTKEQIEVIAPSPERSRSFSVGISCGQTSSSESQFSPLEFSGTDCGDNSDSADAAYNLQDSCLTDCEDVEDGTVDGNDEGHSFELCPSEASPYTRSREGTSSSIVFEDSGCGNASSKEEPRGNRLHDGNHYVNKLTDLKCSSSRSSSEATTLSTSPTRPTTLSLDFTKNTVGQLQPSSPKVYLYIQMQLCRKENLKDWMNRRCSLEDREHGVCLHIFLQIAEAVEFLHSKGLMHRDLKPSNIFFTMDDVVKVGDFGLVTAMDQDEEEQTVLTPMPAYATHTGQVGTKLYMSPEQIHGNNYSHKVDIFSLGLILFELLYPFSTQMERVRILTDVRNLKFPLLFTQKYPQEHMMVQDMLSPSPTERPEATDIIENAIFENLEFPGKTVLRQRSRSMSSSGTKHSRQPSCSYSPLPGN

Substance “eIF2α-NTD (NH2-terminal domain of eIF2α, residues 1-185, three solubilizing mutations, nonphosphorylated) (domain or fragment)” had a stoichiometry N (eIF2α-NTD per PERK) in assay [1] of more than 1. The substance further registered a KCl concentration at the peak of elution in assay [2] of 225 mM KCl.

For “phosphorylated eIF2α-NTD (P–eIF2α-NTD, phosphorylated by PERK on serine 51) (domain or fragment)”, the KCl concentration at the peak of elution in assay [2] is 125 mM KCl.
